Consider 1 substance from US20240084044A1, “Heteromultivalent Nucleic Acid Scaffolds and Uses Thereof” (George Mason University, priority 2022, published 2024).

Where “and” joins values, the source holds several entries; their conditions need not be identical. Equal values may be shown once. Bridges are numbered along the chain shown (N, C = ends). Roman numbers before positions name the chains, in order.

For this experiment, the target named is T1, ST2/IL-33 binary complex (Homo sapiens, UniProt O95760+Q01638).
T1 construct: included the extracellular domains, K19-F328 and S21-E359, respectively; the cleaved mature proteins, S112-T270, A117-S269, and R2-S310, respectively; purchased Sino Biologicals ST2 10105-HCCH; IL-33 10368-HNAE; host or cells: ST2: HEK293; IL-33: E. coli
T1 sequence (Q01638 19-328 isoform Q01638-2): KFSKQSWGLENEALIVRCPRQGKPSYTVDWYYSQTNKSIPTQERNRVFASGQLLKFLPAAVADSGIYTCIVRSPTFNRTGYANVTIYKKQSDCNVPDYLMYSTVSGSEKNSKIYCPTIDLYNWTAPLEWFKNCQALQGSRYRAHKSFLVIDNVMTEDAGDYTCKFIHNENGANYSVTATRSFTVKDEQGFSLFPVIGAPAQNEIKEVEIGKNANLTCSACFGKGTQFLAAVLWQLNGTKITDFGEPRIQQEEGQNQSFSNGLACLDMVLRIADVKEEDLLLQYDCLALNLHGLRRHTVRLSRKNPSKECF
T1 sequence (O95760 112-270): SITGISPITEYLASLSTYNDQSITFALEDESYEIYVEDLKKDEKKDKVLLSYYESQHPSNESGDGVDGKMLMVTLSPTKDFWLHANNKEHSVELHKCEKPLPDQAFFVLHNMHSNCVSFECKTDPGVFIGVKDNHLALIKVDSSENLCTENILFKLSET
As to the kind of experiment: SPR dissociation constant for the ST2/IL-33 binary complex. Type of experiment: binding. The source says: Recombinant ST2 with truncated FLAG (DDDDK) tag (Cat. #10105-HCCH), His-tagged IL1RAcP (Cat. #10121-H08H), IL-33 (Cat. #10368-HNAE), IL-1β (Cat. #10139-HNAE), and FLAG-tagged SIRT5 (Cat. #19202-H22E) were purchased from Sino Biologicals (Wayne, PA). ST2 and IL1RAcP were expressed in HEK293 cells and included the extracellular domains, K19-F328 and S21-E359, respectively. IL-33, IL-1β, and SIRT5 were expressed in E. coli and included the residue sequence of the cleaved mature proteins, S112-T270, A117-S269, and R2-S310, respectively. Lyophilized ST2, and IL1RAcP were reconstituted in ultrapure (18.5 MΩ) water to a concentration of 0.5 mg/mL (5.6 μM) and stored at −80° C. until use. SIRT5 was reconstituted to 0.2 mg/mL (2.87 μM). To prevent oxidation, IL-33 was reconstituted in 10 mM β-mercaptoethanol (Sigma-Aldrich) to a concentration of 0.1 mg/mL and IL-1β was reconstituted to 0.250 mg/mL. All peptides were purchased from Peptide 2.0 (Chantilly, VA) and designed based on IL1RAcP hotspot residues known to interact with IL-33/ST2 and surrounding residues based on the canonical sequence of IL1RAcP (Uniprot #Q9NPH3). All peptides were modified with acetylated N-terms and amidated C-terms to optimize stability and cyclic peptides cyclized via thioether or disulfide bond. Candidate peptides for the final molecule were also modified with an azido-Lysine and additional N-term alanine or cysteine, to provide the azide group for copper free click chemistry and maintain cyclization. Peptides were stored at −20° C. in lyophilized aliquots of 100 μg or 200 μg and −80° C. after reconstitution in sterile DMSO to a concentration of 10 mM.
SPR experiments were carried out on an OpenSPR instrument (Nicoya). Gold nanoparticle sensor chips (Nicoya) were functionalized by incubation in a solution of ethanol and 10 mM 11-Mercaptoundecanoic acid (MUDA) at RT for a minimum of 48 h, then stored in ethanol at 4° C. until use. Chips were activated with a solution of 200 mM EDC and 50 mM NHS for 3 m at RT. […] Data was analyzed with TraceDrawer software to a 1:1 fit model.

For the substance “MSTOP: 3WJ DNA scaffold whose three DBCO staple strands carry cyclized azidolysine IL-1RAcP hotspot peptides; decoy for IL-33/ST2 (peptide 1 Ac-CKEYGIQRITC-NH2; peptide 2 Ac-AKVGSPKNAVPPC-NH2; peptide 3 Ac-CKGEVAKAAKVKC-NH2; disulfide I:1-I:11, III:1-III:13; thioether II:1-II:13; not fully specified (some residues); also: three peptides held on a 3-way junction DNA scaffold via DBCO staple strands)”, the “increase in affinity compared to the individual peptides and IL-1RAcP” value (SPR KD comparison) is ~100 fold and 100 fold. For the same substance, where the note is “SPR, 1:1 fit, read-out: KD (affinity) to the binary ST2/IL-33 complex”, the Kd is 0.195 µM and < 0.2 µM.
